For the data set the following is noted: Katsuwonus pelamis, pH 7.5, 25 °C, GdnHCl, CD, Tris 20 mM, NaCl 40 mM, reversible: yes.

Experimental findings from FireProtDB (doi:10.1021/bi00052a024) are described below.

Cytochrome c K74M, P00025, sequence (P00025 whole entry K74M): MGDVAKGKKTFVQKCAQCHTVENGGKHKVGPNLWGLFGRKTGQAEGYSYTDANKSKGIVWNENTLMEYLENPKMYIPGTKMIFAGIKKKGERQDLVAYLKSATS
Cytochrome c wild type, P00025, sequence (P00025 whole entry): as the sequence (P00025 whole entry K74M) above, with M74K counted along it
Cytochrome c K74F, P00025, sequence (P00025 whole entry K74F): as the sequence (P00025 whole entry K74M) above, with M74F counted along it
Cytochrome c K74W, P00025, sequence (P00025 whole entry K74W): as the sequence (P00025 whole entry K74M) above, with M74W counted along it
Cytochrome c K74Y, P00025, sequence (P00025 whole entry K74Y): as the sequence (P00025 whole entry K74M) above, with M74Y counted along it

Take Cytochrome c K74W, P00025: under “structure 1CYC”, the “ddG of mutation (higher = less stable)” value stood at 1.43 kcal/mol, the denaturant m value came out at 4.16 kcal/mol/M, the “denaturant midpoint (higher = more stable)” value (from here on “denaturant midpoint”) was determined as 1 M and the unfolding free energy came out at 4.23 kcal/mol.

For the substance Cytochrome c K74Y, P00025, for the setting “structure 1CYC”, the “ddG of mutation (higher = less stable)” value stood at 1.05 kcal/mol, the denaturant m value came to 4.62 kcal/mol/M, the “denaturant midpoint” value is 1 M and the unfolding free energy is 4.61 kcal/mol.

With Cytochrome c wild type, P00025, the denaturant m value came to 4.87 kcal/mol/M, the “denaturant midpoint” value worked out at 1.16 M and the unfolding free energy stood at 5.66 kcal/mol.

For the substance Cytochrome c K74M, P00025, for the setting “structure 1CYC”, the “ddG of mutation (higher = less stable)” value turned out to be 1 kcal/mol, the denaturant m value turned out to be 4.43 kcal/mol/M, the “denaturant midpoint” value turned out to be 1 M and the unfolding free energy came out at 4.66 kcal/mol.

As for Cytochrome c K74F, P00025, under “structure 1CYC”, the “ddG of mutation (higher = less stable)” value worked out at 1.15 kcal/mol, the denaturant m value is 4.44 kcal/mol/M, the “denaturant midpoint” value turned out to be 1 M and the unfolding free energy came to 4.51 kcal/mol.
